The values that follow come from patent publication US20180284123A1 (CALIFORNIA INSTITUTE OF TECHNOLOGY, published 2018).

Ends that are not written are not given here.

Experiment [1] has as its target T1, His6-tagged human KRas Isoform 4B (residues 1-169) (human, UniProt P01116-2 1-169). Put plainly: cell-based or functional assay.
Experiment [2] deals with T1, His6-tagged human KRas Isoform 4B …. Put plainly: barcoded rapid assay microchip, fitted curves of FIG. 6B (Hill coefficient 1), triplicate.
Experiment [3] shares this target. Kind of experiment: B-RAP surface immunofluorescence assay; ligand on barcode via SAC-DNA, KRas titrated 0-400 µM. The protocol: After extraction the data is background corrected. The background signal arises from (a) non-specific binding of the primary and secondary antibodies (independent of [KRas]), but can vary across different barcode stripes), and (b) non-specific binding of KRas protein ([KRas] dependent). Background (a) was assessed by measuring the average signal in the null protein well for each stripe. Background (b) was assessed by measuring the average fluorescence for the dummy ligand (Biotin* probe) that was in each well. The background subtracted data was then graphed in Graphpad Prism 7 and fitted to a sigmoidal curve (Hill coefficient=1).
A pre-fabricated PDMS template was aligned onto the DNA barcode microchip, and the microchip was taped into a 10 cm petri dish. The wells on the platform were wet with 50 μL PBST before filling with blocking buffer and placing into a 37° C. incubator for 1 hr. Concurrently, 40 μL 1% BSA in PBS solutions containing 750 nM of a SAC-DNA conjugate and 3.75 μM of one biotinylated PCC ligand or biotin-A₂₀-Cy3 blank were prepared for each SAC-DNA conjugate. The biotinylated ligands were allowed to complex with the SAC protein for one hour before pooling the SAC-DNA-ligand solutions (final [SAC-DNA-ligand conjugates]=50 nM). The blocking buffer was aspirated and each well was loaded with the SAC-DNA-ligand conjugates cocktail for hybridization with the DNA barcode at 37° C. for one hour. The wells were washed with PBST (3×) before loading serially diluted solutions of KRas protein in protein buffer (0 to 400 μM). After shaking at RT for one hour, the wells were rinsed with PBST (5×), making sure to pipet up/down with the first addition of PB ST. A (100:1) dilution of CST rabbit anti-Ras Ab (#39655) in 1° ab buffer was added to each well before shaking at RT for one hour. After rinsing the wells with PBST (3×), the wells were loaded with a (200:1) dilution of Abcam goat anti-rabbit-Alexafluor 647 linked ab (ab150079) in 2° ab buffer before shaking at RT for one hour. A final rinse of the wells with PBST (3×) proceeded peeling off the PDMS slab from the barcode microchip and dipping the barcode into the following solutions: PBS, (1:1) PBS: MQ H₂O, MQ H₂O (2×). After being spun dry, the barcode was read on the Genepix (635 nm, PMT 600, PWR 40% (60 W); 532 nm, PMT 450, PWR 15% (23 W)).

For experiment [4] the target is unchanged. Put plainly: multi-well sandwich ELISA; ligand on Neutravidin plate, KRas 0-300 µM; footnote b: poorly resolved. The procedure:
A 96-well Pierce Neutravidin Plate was washed with binding buffer (3×5 minutes at RT) before loading plate with a 1 μM solution of either blank (biotin-PEG₅-NHAc) (singly) or biotinylated PCC ligand (in triplicate). The plate incubated for two hours before washing with binding buffer (3×5 minutes). Blocking buffer was added to each well and the plate blocked for one hour before undergoing washing with binding buffer (3×5 minutes). Each well was loaded with either binding buffer or KRas solution (0→300 μM), and the plate was incubated for 30 minutes. Plate washing with binding buffer (3×5 minutes) preceded incubating the plate with a (1000:1) dilution of 1° antibody (ab) rabbit anti-Ras (CST #3965) in ab buffer for thirty minutes. The plate was washed with binding buffer (3×5 minutes), loaded with a (2000:1) dilution of 2° ab goat anti-rabbit, HRP-linked ab (CST #7074) in ab buffer, and incubated for an additional thirty minutes. The plate was rinsed with binding buffer (3×5 minutes), TBS (1×5 minutes), loaded with a (1:1) mixture of TMB Peroxidase Solution and TMB Peroxidase Solution B, and developed with occasional agitation for 8-12 minutes. After quenching the enzymatic reaction with 1M H₂SO_{4(aq)} (100 μL) the plate was read at λ=450 nm within ten minutes. The data was double background corrected using the ab only absorbance and the dummy ligand absorbance, plotted using Prism GraphPad 7 (Sigmoidal 4PL mode with the Hill coefficient set=1), and an EC₅₀ value was calculated.
Background: In an ELISA, binding on a coated surface is turned into a signal by an enzyme label.

B1: L2 (peptide)
peptide: EGVPV
modifications: triazole (positions not given here); not fully specified (bridges); also: macrocycle closed by 1,4-triazole, propargylglycine click handle, other ring residues not given here
notes: also called EGVPV
Take B1: the “IC50 of the intrinsic GTPase activity of KRas (GTPase-Glo, 10 µM KRas, four-hour incubation)” value in experiment [1] worked out at 24 µM. For the same molecule, the “IC50 of the intrinsic GTPase enzymatic activity of KRas” value in experiment [1] was roughly 20 µM. For the same molecule, the EC50 (usually the concentration needed to bring the measured effect to its halfway point) in experiment [2] worked out at 8.19 µM; in experiment [3], 3.31 µM; in experiment [4] it was 33.2 µM.
